What all share (assay): SEC-MALLS
In assay [1] the target is MVV IN QQQ211PGG (maedi-visna virus (KV1772 isolate)).
A further assay concerns the target MVV IN R231E. The note with it: IN injected at 2 mg/mL (bar); Superdex-200 column; parent: est. 170; read off a plot.
The target of the next assay is MVV IN V252D. The note with it: IN injected at 2 mg/mL (bar); Superdex-200 column; parent: est. 170; read off a plot.
Assay [2] concerns the target MVV IN H12N (maedi-visna virus (KV1772 isolate)).
The target of a further assay is MVV IN Y225A. The note with it: IN injected at 2 mg/mL (bar); Superdex-200 column; parent: est. 170; read off a plot.
A further assay addresses MVV IN W245E. The note with it: IN injected at 2 mg/mL (bar); Superdex-200 column; parent: est. 170; read off a plot.
In another assay the target is MVV IN V263E. The note with it: IN injected at 2 mg/mL (bar); Superdex-200 column; parent: est. 170; read off a plot.
In another assay the target is MVV IN W245A. The note with it: IN injected at 2 mg/mL (bar); Superdex-200 column; parent: est. 170; read off a plot.
Another assay has as its target MVV IN V252A. The note with it: IN injected at 2 mg/mL (bar); Superdex-200 column; parent: est. 170; read off a plot.
In the next assay the target is MVV IN I272E. As to conditions: IN injected at 2 mg/mL (bar); Superdex-200 column; parent: est. 170; read off a plot.
Another assay addresses MVV IN E154Q. The note with it: IN injected at 2 mg/mL (bar); Superdex-200 column; parent: est. 170; read off a plot.
Another assay concerns the target MVV IN Y261A. The note with it: IN injected at 2 mg/mL (bar); Superdex-200 column; parent: est. 170; read off a plot.
Assay [3] concerns the target MVV IN chimera QQQ211PFV304-314 (portion of the PFV IN CCD-CTD linker between MVV IN Gln210 and Gln214) (maedi-visna virus (KV1772 isolate) | prototype foamy virus (PFV)).
The target of another assay is MVV IN QQ207GP. As to conditions: IN injected at 2 mg/mL (bar); Superdex-200 column; parent: est. 170; read off a plot.
Assay [4] addresses MVV IN QQ207GP (maedi-visna virus (KV1772 isolate)).
For the next assay, the target named is MVV IN QQQ211PGG. As to conditions: IN injected at 2 mg/mL (bar); Superdex-200 column; parent: est. 170; read off a plot.
Assay [5] deals with maedi-visna virus (MVV) integrase, wild type, KV1772 isolate (maedi-visna virus (KV1772 isolate)).
In a further assay the target is MVV IN H12N. The note with it: IN injected at 2 mg/mL (bar); Superdex-200 column; parent: est. 170; read off a plot.
A further assay deals with MVV IN Y261E. The note with it: IN injected at 2 mg/mL (bar); Superdex-200 column; parent: est. 170; read off a plot.
In another assay the target is MVV IN W245L. As to conditions: IN injected at 2 mg/mL (bar); Superdex-200 column; parent: est. 170; read off a plot.
A further assay deals with MVV IN F223A. As to conditions: IN injected at 2 mg/mL (bar); Superdex-200 column; parent: est. 170; read off a plot.

Values joined by “and” are separate entries in the source; they are usually repeats but may differ in a detail not shown here. Identical values can stand only once.

Chain of maedi-visna virus (MVV) integrase, wild type, KV1772 isolate (P03370 1226-1506 limits assumed): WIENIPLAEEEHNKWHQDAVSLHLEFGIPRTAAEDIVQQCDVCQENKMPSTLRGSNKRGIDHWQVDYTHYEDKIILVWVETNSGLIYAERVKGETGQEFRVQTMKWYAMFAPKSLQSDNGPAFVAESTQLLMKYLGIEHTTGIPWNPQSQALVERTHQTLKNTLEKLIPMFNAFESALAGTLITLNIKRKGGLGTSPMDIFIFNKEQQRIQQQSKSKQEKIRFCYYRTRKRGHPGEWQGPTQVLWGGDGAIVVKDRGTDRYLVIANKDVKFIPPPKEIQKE

What is called stoichiometry N is the number of molecules, sites or subunits per partner or assembly. Regarding MVV IN QQQ211PGG (enzyme), in assay [1], the stoichiometry N is 2.

As to “maedi-visna virus (MVV) integrase, wild type, KV1772 isolate R231E”, the other: average molecular mass with MVV IN R231E was determined as 180 kDa.

With “maedi-visna virus (MVV) integrase, wild type, KV1772 isolate V252D”, in the assay with MVV IN V252D, the other: average molecular mass amounted to 80 kDa.

In assay [2], MVV IN H12N (enzyme) returned a stoichiometry N of 2.

Consider “maedi-visna virus (MVV) integrase, wild type, KV1772 isolate Y225A”, for which the other: average molecular mass with MVV IN Y225A was found to be 120 kDa.

Turning to “maedi-visna virus (MVV) integrase, wild type, KV1772 isolate W245E”, the other: average molecular mass with MVV IN W245E turned out to be 90 kDa.

In the case of “maedi-visna virus (MVV) integrase, wild type, KV1772 isolate V263E”, in the assay with MVV IN V263E, the other: average molecular mass was 110 kDa.

In the case of “maedi-visna virus (MVV) integrase, wild type, KV1772 isolate W245A”, the other: average molecular mass in the assay with MVV IN W245A turned out to be 120 kDa.

Turning to “maedi-visna virus (MVV) integrase, wild type, KV1772 isolate V252A”, the other: average molecular mass in the assay with MVV IN V252A worked out at 120 kDa.

For “maedi-visna virus (MVV) integrase, wild type, KV1772 isolate I272E”, the other: average molecular mass with MVV IN I272E came to 100 kDa.

Take “maedi-visna virus (MVV) integrase, wild type, KV1772 isolate E154Q”: the other: average molecular mass in the assay with MVV IN E154Q worked out at 180 kDa.

With “maedi-visna virus (MVV) integrase, wild type, KV1772 isolate Y261A”, the other: average molecular mass with MVV IN Y261A is 100 kDa.

As for “MVV IN chimera QQQ211PFV304-314 (portion of the PFV IN CCD-CTD linker between MVV IN Gln210 and Gln214) (enzyme)”, the stoichiometry N in assay [3] was 2.

Turning to “maedi-visna virus (MVV) integrase, wild type, KV1772 isolate Q207G; Q208P”, the other: average molecular mass with MVV IN QQ207GP came out at 65 kDa.

MVV IN QQ207GP (enzyme) returned a stoichiometry N in assay [4] of 2.

As for “maedi-visna virus (MVV) integrase, wild type, KV1772 isolate Q211P; Q212G; Q213G”, the other: average molecular mass in the assay with MVV IN QQQ211PGG was determined as 65 kDa.

Take “maedi-visna virus (MVV) integrase, wild type, KV1772 isolate (enzyme)”: the stoichiometry N in [5] was 4 and 8.

Take “maedi-visna virus (MVV) integrase, wild type, KV1772 isolate H12N”: the other: average molecular mass in the assay with MVV IN H12N came to 40 kDa.

For “maedi-visna virus (MVV) integrase, wild type, KV1772 isolate Y261E”, the other: average molecular mass in the assay with MVV IN Y261E was found to be 78 kDa.

On to “maedi-visna virus (MVV) integrase, wild type, KV1772 isolate W245L”, for which, in the assay with MVV IN W245L, the other: average molecular mass was determined as 110 kDa.

As for “maedi-visna virus (MVV) integrase, wild type, KV1772 isolate F223A”, the other: average molecular mass with MVV IN F223A was 120 kDa.

(Values after article PMC9065133.)
